This data set concerns the molecule itself. Description: SEC + other: non-reducing and reducing SDS-PAGE; about 700 kDa on Sephacryl S-400, about 360 kDa in non-reducing SDS-PAGE, traces of the 162 kDa subunit under reduction; tetramer of two disulfide-linked dimers.

B1: mouse ovostatin homolog (natural protein, mouse (endogenous in immature mouse ULF), UniProt Q3UU35 20-1456, looked up)
chain: AEPRYILWVSSVVQRFSSEKACLHLLNLNESVSLSVTLEYDGSSTTIFDQPVDEGNFYACADFKVSQMSSEQLAFVALLVQGNTLKISERRSVAIAAEENATFVQTDTPVHKPGDTVHFRVVTLNIWLKPVDDLYPLITVQDPQSNVIFQWINVTTFRNITQLSFQLTPEPILGDYTIVIKTQSGTTVMDHFTVNRDVLPKFEVELTAPETITIADSQFQMVTCAKYTYGQPVQGKAQIKVCRELFSPAHCESNENEICEQFTVQLKDGCASHIINTKVFQLDRSGLFMTLNVNEVVTESGTGVQMSKTHSVFITSVLGTVSFENMDPFYRRGITYFGTLKFSGPNNTPLVDKLLQLELDGKPVGNYTTDENGEARFSINTSEIFGAQISLKAVYVRPRSCHRSSWLSPEYLDAYFSASRFYSQTSSFTKIILEPKQLPCDQEKMFSVLYSLNPEAYKEASDVTFFYLVMVRGGISRSGQKQVRVQAWNGNFSFPISINADLAPSADLFVYTLHPSGEIVADNVRLQIEKCFKNKVSINFSRDKDLPGSNTSVHLQAAPDSFCALRAVDKSALLLNHGQEMTPESVYFTLPYIHQYGYFYNGLNLDDQQAEPCIPQKDLFYNGLYYTPTGNIWDGDLSNLLSNMGLKIFTNLHYRKPEVCSSQENQPLLRTFDHPNERIMMYGGGAPPSSAFHDSVDSISHAKVAIKETVRTNFPRTWIWNLVSVDSSGTANVSFLVPDTITQWEASAFCVNGNAGFGISPKVSLQISQPFFVEVTSPFSVVRSEQSDMVVTVFNYLTTCVEISVQLEASENYEASINTQRNTDSEVLQAGEQKTYVWTIIPKTLGKVNVTVVATSKQSRACPNDASKEQDVHWKDTVVKTMLVEAEGIEKEATQSFLICPKGTKASKQTLLELPSNVVEGSVRSFVTIVGDILGVAMQNLESLLQMPYGCGEQNIAQLASDVYILDYLKATDQLTEELKSKAQRLLSNGYQNHLSFKNYDGSYDVFCQSNQEGSTWLSALSFKTVEKMKEYIFIEETVPKQTLIWLVKKQKSNGCFRRDEKHVDTAQEGREGDQEDIALTAYVVGVFLEVGLNASFPALRNGLYCLEEAFSNGVTNGYTQAILAYVFALAGKEQQAKSLLSILDKSATKTNNMIYWERDEKPETDNSPSFIPSALSGETEKTCYVLLAVLSQDTQDLDYASKIVQWLAQRMNSHGGFSAMQDTTVCLLALTQYMKLTGSNPQNTITLSSEESEEVFYVNRNKRLLVQHSKVSKGHQQYTVDVEGDGCSFIQATLRYNVPLPKEASGFSLSVKTGKSNSSDEFQTKFELTVTLTYTGARESSVTVLVDVKMLSGFTPVVSSTEELKFNSQVTKTDIKNGHVLFYLENVPKEATSLTFSIEQTNHVANIQPAPVTVYSYEKGEYAFDSYNINSISDSQ
notes: ovostatin homolog, mouse, NP_001001179.2; predicted subunit 162 kDa; 360 kDa in non-reducing SDS-PAGE, about 700 kDa by gel filtration; In ULF most subunits are seen as an 88 kDa fragment under reducing conditions, only traces as the 162 kDa subunit; also called mOH; 360 kDa protein; source: endogenous, uterine luminal fluid (ULF) of DES-treated immature ICR mice; also partly purified from it …
As to B1, the stoichiometry N (as a rule, a count of units in the complex or per binding partner) was determined as 4.

These data come from PMC6428836, “A complex of novel protease inhibitor, ovostatin homolog, with its cognate proteases in immature mice uterine luminal fluid” (Scientific Reports, 2019).
